# Assay results as given in patent US20110262366A1 (published 2011).
# Starred links: 1 amine or outer side, 2 acyl side, 3 side chain; linkers in the order of their positions; H or OH if unused. No end group written: not given here. NH(CH2)3(OCH2CH2)2O(CH2)3NH = C(CN[*:1])COCCOCCOCCCN[*:2]; Oregon Green = Oregon Green fluorescent reporter dye
# Target: T1, NP-1/Fc (Neuropilin-1/Fc, R&D Systems)
# T1 construct: Bought reagent; also called Npn-1
# Experiment: competition with 250 pM ^125I-VEGF165 on NP-1/Fc-coated plates, 4° C., 2 h
# Protocol: The next day all wells, even control wells lacking NP-1/Fc, were blocked 2 hrs with blocking buffer (1% BSA in D-PBS with 0.05% v/v Tween-20) then washed 4× with PBST (D-PBS/0.05% v/v Tween-20) before starting the assay. All points were derived from triplicate wells, and for each set of replicates in NP-1/Fc-coated wells, a companion set in the absence of the receptor was included. […] After addition of the appropriate solutions, microtiter plates were incubated at 4° C. for 2 hours. Following the incubation, plates were hand-washed 5 times with D-PBS containing 0.05% Tween-20 and 0.1% BSA. […] VEGF₁₆₅ (Cat. No. 100-20) was obtained from Peprotech.
# T1 sequence (Q9QWJ9 22-855): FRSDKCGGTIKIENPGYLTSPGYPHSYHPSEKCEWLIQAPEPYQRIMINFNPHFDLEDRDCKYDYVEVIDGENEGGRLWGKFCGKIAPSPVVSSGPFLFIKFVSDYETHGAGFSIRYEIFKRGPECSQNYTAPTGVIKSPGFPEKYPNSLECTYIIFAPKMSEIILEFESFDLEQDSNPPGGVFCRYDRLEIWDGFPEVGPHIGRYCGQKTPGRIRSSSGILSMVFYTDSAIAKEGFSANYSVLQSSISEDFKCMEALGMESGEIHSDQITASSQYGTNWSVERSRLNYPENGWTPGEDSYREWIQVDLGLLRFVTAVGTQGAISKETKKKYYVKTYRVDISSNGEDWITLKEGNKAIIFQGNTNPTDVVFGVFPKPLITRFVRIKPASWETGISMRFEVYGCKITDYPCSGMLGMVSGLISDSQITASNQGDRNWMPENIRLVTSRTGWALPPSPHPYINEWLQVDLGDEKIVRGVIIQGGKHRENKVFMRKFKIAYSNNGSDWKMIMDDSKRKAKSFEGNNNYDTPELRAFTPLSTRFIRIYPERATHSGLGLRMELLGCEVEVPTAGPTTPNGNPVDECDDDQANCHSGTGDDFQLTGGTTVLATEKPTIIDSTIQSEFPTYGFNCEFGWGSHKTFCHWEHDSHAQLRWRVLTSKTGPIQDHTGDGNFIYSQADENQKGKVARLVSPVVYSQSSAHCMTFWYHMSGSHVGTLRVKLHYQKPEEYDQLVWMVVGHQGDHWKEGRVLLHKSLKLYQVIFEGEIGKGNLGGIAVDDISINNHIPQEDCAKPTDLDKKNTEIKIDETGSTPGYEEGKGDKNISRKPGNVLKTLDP
binder,measurement,value
"TKPPRKRPPKTKKRPPKTTKPPRG-{NH(CH2)3(OCH2CH2)2O(CH2)3NH-Oregon Green} (also: branched on lysine core: TKPPR units linked via C-terminal Arg to Lys side chains, letters 7-11 and 14-18 written reversed, not a linear chain, also called Reverse Tetramer; tetrameric TKPPR linked to a different scaffold through the C-terminal amino acid) [Tetramer BRU-346: TKPPR-K(RPPKT)-K[K(RPPKT)TKPPR]-G-Z-OG]",IC50,8 µM
